Source: the nanobody polyreactivity screen of Harvey et al. (2022)

Assay: yeast display, Sf9 membrane polyspecificity reagent, FACS + sequencing; frameworks hold sequencing errors
Procedure, shortened: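 Sorting gates, low and high (top ~1%), were placed on anti-HA fluorescence to track expression and on streptavidin fluorescence to track reagent binding. A clone's polyreactivity label is taken from the gate it came out of. The reagent was 10% biotinylated, detergent-solubilized Sf9 membrane, applied for 1 hour at 4 °C to galactose-induced yeast display cells.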

Sequence: QVQLVESGGGLVQAGGSLRLSCAASGRIFVKNAMGWYRQAPGKERELVAGISRGGSTYYADSVKGRFTISRDNAKNTVYLQMYSLKPEDTAVYYCATRNYGRGQFDYWGQGSQVTVSS
- polyreactivity (PSR sort gate): high polyreactivity

Sequence: QVQLVESGGGLVQAGGSLRLSCAASGIIFLTNAMGWYRQAPGTVRELVAAITAIGGSTYYADSVKGRFTISRDNAKNTVYLQMNSLKPEDTAVYYCAADCSYVYYLYDYWGQGTQVTVSS
- polyreactivity (PSR sort gate): low polyreactivity

Sequence: QVQLVESGGGLVQAGGSLRLSCAASGRIFSYNAMGWYRQAPGKERELVAAITGGGSTNYADSVKGRFTISRDNAKNTVYLQMNSLKAEDTAVYYCAARSWSYKYWGQGTQVTVSS
- polyreactivity (PSR sort gate): high polyreactivity

Sequence: QVQLEESGGGLVQAGGSLRLSCPASGSTFGKNAMGWSRQAPGKERELVASITWRGGCTYYADSVKGRITISRDNAKNTVFLQMNSLKPEDTAVYYCATNWHIHIGSYKYYYWGQGTQVTVSS
- polyreactivity (PSR sort gate): low polyreactivity

Sequence: QVQLVESGAGLVQAGGSLPLSCAASGSTFPKYAMGWYRQAPGKEREFVSAITSSGGRTFYADSVKGRFTISRDNAKNTVYLQMNSLKPEDTAVYYCAAYYYSWSGAFIYEYWGQGTQETVSS
- polyreactivity (PSR sort gate): high polyreactivity

Sequence: QVQLVESGGGLVQAGGSLRLSCAASGRTFTGYTMGWYRQAPGKEREFVAAISSNGGRTYYADSVKGRFTISRDNAKNTVYIQMNSLKPEDTAVYYCAAPYTFWGQGTQVTVSS
- polyreactivity (PSR sort gate): high polyreactivity

Sequence: QVQLVESGGGLVQAGGSLRLSCAASGGIFSAYDMGWYRQAPGTERELVAAINSGGSTNYADSVKGRFTISRDNAKNTVYLQMNSLKPEDTAVYYCAAAKVSWFGLKYYYWGQGTQVTVSS
- polyreactivity (PSR sort gate): high polyreactivity

Sequence: QVQLVESGGGLVQAGGSLRLSCVASGRTFSRYAMGWYRQAPGKERELVAAISLRCGRTKYADSVKGRFTISRDNAKNTVYLQMNSLKPEDTAVYYCAADIYYGYPWRYHAGYYEGFDYWGQGTQVTVSS
- polyreactivity (PSR sort gate): high polyreactivity

Sequence: QVQLVESGGGLVQAGGSLRLSCAASGRRFRWYVMGWYRQAPGKERELVARISSNVGSTYYADSVKGRFTISRDNAKNTVYLQMNSLKPEDTAVYYCAAGPPKYYYSNRYYWGQGTQVTVSS
- polyreactivity (PSR sort gate): high polyreactivity

Sequence: QVQLVESGGGLVQAGGSLRLSCAASGSIFDYNAMGWYRQAPGKERELVASISGDSGSTYYADSVKGRFTISRDNAKNTDYLQMNSLKPEDTAVYYCAAPYVSWDYRYYYWGQGTQVTLSS
- polyreactivity (PSR sort gate): low polyreactivity

Sequence: QVQLVESGGGLVQAGGSLRLSCAASGRTCVGNAMGWYRQAPGKERELVAAIRRGGDSTYYADSVKGRFTISRDNAKNTVYLQMNSLKPEDTAVSYCNAVSLQPYRGGFDYWGQGTQVTVSS
- polyreactivity (PSR sort gate): low polyreactivity

Sequence: QVQLVESGGGLVQAGGSLRLSCAASGLTFVDYDMGWYRQAPGKERELVADINSGGYTYYADSVKGRFTISRDNAKNTVYLQMNSLKPEDTAVYYCAADDGWGYISSYDYEYWGQGTQVTVSS
- polyreactivity (PSR sort gate): high polyreactivity

Sequence: QVQLVESGGGLVQAGGSLRLSCAASGRTFGPNAMGWYRQAPGKERELVAAIRYSGGSTYYADSVKGRFTISRDNAKNTVYLQMNSLKPEDTAVYYCAADYVSYVGERGTLYVRYDYWGQGTQVTVSS
- polyreactivity (PSR sort gate): high polyreactivity

Sequence: QVQLVESGGGLVQAGGSLRLSCAASGSIYRYAMGWYRQAPGKEREFVAAITGGSGSTYYADSVKGRFTISRDNAKNTVYLQMNSLKPEDTAVYYCAASIWRGLTPLLIGFDYWGQGTQVTVSS
- polyreactivity (PSR sort gate): high polyreactivity

Sequence: QVQLVESGGGLVQAGGSLRLSCAASGLIFGWYAMGWYRQAPGKERELVAAITRSGGSTYYADSVKGRFTISRDNAKNTVYLQMNSLKPEDTAVYYCAARSYVPSYDYWGQGTQVTVSS
- polyreactivity (PSR sort gate): high polyreactivity

Sequence: QVQLVESGGGLVQAGGSLRLSCAASGSSFKRYAMGWYRQAPGKERELVAAINWRGGRTYYADSVKGRFTISRDNAKNTVYLQMNSLKPEDTAVYYCNVVSNSYYYQHYYWGQGTQVTVSS
- polyreactivity (PSR sort gate): high polyreactivity

Sequence: QVQLVESGGGLVQAGGSLRLSCAASGFIFRSYAMGWYRQAPGKERELVAGISYRGGSTYYADSVKGRFTISRDNAKNTVYLQMNSLKPEDTAVYYCAATAWYNWYFGLDYWGQGTQVTVSS
- polyreactivity (PSR sort gate): high polyreactivity

Sequence: QVQLVESGGGLVQAGGSLRLSCAASGRIFAYNTMGWYRQAPGKERELVAGITSGGSTNYADSVKGRFTISRDNAKNTVYLQMNSLQPEDTAVYYCAAVGRWGVTGSHHDAYDYWGQGTQVTVSS
- polyreactivity (PSR sort gate): high polyreactivity

Sequence: QVQLVESRGGLVQAGGSLRLSCAASGRIYSVYDMGWYRQAPGKESEFVAAIRSSGDSTYYADSVKGRFTISRDNAKNTVYLQMNSLKPDDTAVYYCAADVYRYRVRGLNYWGQGTQVTVSS
- polyreactivity (PSR sort gate): high polyreactivity

Sequence: QVQLVESVGGLDQAGGSLRLRCAASGFIVGYYAMGWYRQAPGKEWEFVAAISWTGGNTYYADSVKGRFTISRDNAKNTVSLQLNSLKPEDTAVYYCNVVVSGYADRDGYNYWGQRTQVTVSS
- polyreactivity (PSR sort gate): high polyreactivity

Sequence: QVQLVESGGGLVQAGGSLRLSCADSGRIFDLNAMGWYRQAPGKERELVAAITWSGDSTYYADSVKGRFTISRDNAKNTVYLQMNSLKPEDTAVYYCAAASRTSYSWVDYEFDYWGQGTQVTVSS
- polyreactivity (PSR sort gate): low polyreactivity

Sequence: QDQLVESWGGLVQAGGSLRLSCAASGFTFRNNAMGWYRHAPWKERDLVASITARGGSTYYADTVKGRFTISRDNAINTVYVQLNILKTEDTAVYYSATDDYTWRRHPWYAGYDSWGQGTQVTVSS
- polyreactivity (PSR sort gate): low polyreactivity

Sequence: QVQLVESGGGLVQAGGSLRLSCAASGSTFYYYAMGWYRQAPGKERELVASITTGGGSTYYADSVKGRFTISRDYAKNTVYLQMNSLKPEDTAVYYCAAALAYYYWWYDYWGQGTQVTVSS
- polyreactivity (PSR sort gate): low polyreactivity

Sequence: QVQLVESGGGLVQAGGSLRLSCAASGRIFFRYAMGWYRQAPGKEREFVAAISGTGGSTYYADSVKGRFTISRDNAKNTVYLQMNSLKPEDTAVYYCAASVVSRPTYYAYYYWGQGTQVTVSS
- polyreactivity (PSR sort gate): high polyreactivity

Sequence: QVQLVESGGGLVQAGGSLRLSCAASGFTFDKKVMGWYRLAPGKERELVAANSVRGGTTYYADSVKGRFTISRDYAKNTVYLQMNSLKPEDSAVYDCAARAYGPPARYESWGQGTQVTVSS
- polyreactivity (PSR sort gate): low polyreactivity

Sequence: QVQLVESGGGLVQAGGSLRISCAASGSIFPFYAMGWYRQAPGKERELVAAISDRGGSTYYADSVKGRFTISRDNAKNTVYLQMNSLKPEDTAVYYCAKGGEVSQGYTDEYDYWGQGTQVTVSS
- polyreactivity (PSR sort gate): low polyreactivity

Sequence: QVQLVDSGGGLVQAGGSLRLSCAASGFTIVHNAMGWYRQAPGKERELVAAISSSGGRTYYADSVKGRFTISRDNAKNTVYLQMNSLKPEDTAVYYCNARGYRGYDYWGQGTQVTVSS
- polyreactivity (PSR sort gate): high polyreactivity

Sequence: QVQLVESGGGLVQAGGSLRLSCAASGSIFTWNGMGWYRQAPGKERELVAAISNGASTNYAESVKGRFTISRDNAKNTVYLQMNSLKPEDTAVYYCAAKSTGRYDYWGQGTQVTVSS
- polyreactivity (PSR sort gate): low polyreactivity

Sequence: QVHLVESGGGLVQAGGSLRLSCAASGIFSRYAMRWYRQAPGKERELVDAISSGDSTNYADSVKGRFTISRDNAKNTVYLQMNSLKPEDTAVYYCATERSHLASGQGYYYVQTFYYWGQGTKVTVSS
- polyreactivity (PSR sort gate): low polyreactivity

Sequence: QVQLVESGGGLVQAGGSLRLSCAASGRTFTVYAMGWYRQAPGKERELVATISGSTGSTYYADSVKGRFTISRDNAKNTVYLQMNSLKPEDTAVYYCAARVRYRYLIGSGFDYWGQGTQVTVSS
- polyreactivity (PSR sort gate): low polyreactivity

Sequence: QVQLVESGGGLVQAGGSLRLSCAASGITFYFNTMGWYRQAPGKVRELVASISGGSSTYYADSVKGRFTISRDNAKNTVYLQMNSLKPEDTAVYYCNAQGALFRGWFDYDYWGQGTQVTVSS
- polyreactivity (PSR sort gate): low polyreactivity

Sequence: QVQLVESGGGLVQAGGSLRLSCAASGSTFGRYVMGRYRPAPGKERELVAAISGSGGSTYYADSVKGRFTISRDNAKNTVYLQMNSLKPEDTAVYYCAARVAHYEYYWGQGTQVTVSS
- polyreactivity (PSR sort gate): high polyreactivity

Sequence: QVQLVESGGGLVQAGGSLRLSCAASGSIFQFYAMGWYRQAPGKERELVADISYGGSTYYADSVKGRFTISRDNAKKTVYLQMNSLKPEDTAVYYCAAAAYWWVKGFGSYYWGQGTQVTVSS
- polyreactivity (PSR sort gate): high polyreactivity

Sequence: QVQLVESGGGLVQAGGSLRLSCAASGRIFRQKAMGWYRQAPGKERELVASISSGGNTYYADSVKGRFTISRDNAKNNVYLQMNSLKPEDTAVYYCAAAKQRYYRWWTTPGYDYWGQGTQVTVSS
- polyreactivity (PSR sort gate): low polyreactivity

Sequence: QVQLVESGGGLVQAGGSLRLSCAASGSIFRGYTMGGYRQAPGKETELVAAISRSGGSTYYADSVKGRFTISRDNAKNTVYLQMNSLKPEDTAVYYCAADSFRTRAIYDYWGQGTQVTVSS
- polyreactivity (PSR sort gate): high polyreactivity

Sequence: QVQLVESGGGLVQAGGSLRLSCAASGFTFHKYAMGWYRQAPGKERELVAAITSSGGSTYYADSVKGRFTISRDNAKNTVYLQMNSLKPEDTAVYYCNARGGGRKSYDYWGQGTQVTVSS
- polyreactivity (PSR sort gate): high polyreactivity

Sequence: QVLLQESGGGLVLAGGSLRLGCAASGTISPAYYMGRYHQAPGKEREFVAAITYGTNTYYADSVKGRFTISRDNAKYTVYLQMHSLKPEDTAVYYCSATAGYNGAHDYWGQGTQVTVSS
- polyreactivity (PSR sort gate): low polyreactivity

Sequence: QVQLVESGGVLVQAGGSLRLSCAASGSIFGTYAMGWYRRAPGKERELVAAITSDGVDTYYADSVKGRFTISRDNAKITVYLQMNSLKPEDTAVYYGAAEYEGLYGYGYWGQGTQVTVSS
- polyreactivity (PSR sort gate): high polyreactivity

Sequence: QVQLVESGGGLVQAGGSLRLSCAASGSTFGSYAMGWYRQAPGKERELVAAISTRGGRTRYADSVKVRFTISRDNAKNTVYLQMNSLKPQDTAVDYCATRIGSRVYNVSGYYRKDDYWGQGTQVTVSS
- polyreactivity (PSR sort gate): high polyreactivity

Sequence: QDQLVESGGGLVQAGGSLRLSCAASGRTFDDYAMGWSRPAPGKERELVAAINSGGNTYYADSVKGRFTISRDNAKNTVYLQMNSLKREDTADYYCAAYYRDKLSGYNYWRQGTQVTVSS
- polyreactivity (PSR sort gate): high polyreactivity

Sequence: QVQLVESGGGLVQAGGSLRLSCAASGITFSYNAMGWYRQAPGKERELVAAISSNSDSTYYADSVKGRFTISRDYAKNTVYLQMNRLKPEDTAVYYCAADTPDAPDYSGFYYWGQGTQVTVSS
- polyreactivity (PSR sort gate): low polyreactivity

Sequence: QVQLVESGGGLVQAGGSLRLSCAASGSTFSGNAMGWYRQAPGKERELVAAITSSGGSTYYADSVKGRFTISRDNAKNTVYLQMNSLKPEDTAVYYCAADGQYYYGFDYWGQGTQVTVSS
- polyreactivity (PSR sort gate): high polyreactivity

Sequence: QVQHEESGGGLDQPGGSLRLTCAASGRIFNGYKMGWYRKAPGKETEFVDTISRSGGSTYYADSVKGRFTISRDNAKNSVYLQMNSLKPEDTAVYYCAKSYPDKWEYDYWGQGTQVTVSS
- polyreactivity (PSR sort gate): low polyreactivity
